What was measured:
[1] = biological target: water-soluble hFcRn (human) (UniProt P55899); assay: SPR (Proteon XPR36), shFcRn immobilized on GLC chip, hIgG1 as analyte, pH 6.0
[2] = biological target: T1, human FcRn (co-crystal with HL161BK Fab) (human, UniProt P55899 24-297; P61769 21-119); assay: X-ray co-crystal structure at 2.4 Å
T1 construct: also called hFcRn
Source text: There are two copies each of hFcRn and HL161BK Fab per asymmetric unit. […] A data set was collected at ESRF beamline ID30A-1.

| Kd [1] [nM] | koff [1] [s⁻¹] | kon [1] [M⁻¹ s⁻¹] | binding result [2] | Molecule |
| --- | --- | --- | --- | --- |
| 1.4 | 0.00046 | 320000 | – | hIgG1 (antibody) |
| – | – | – | binds | HL161BK antibody Fab fragment (Fab, V domains shown, HL161BK is HL161B with asparagine (N) at position 83 of the heavy-chain variable framework replaced by lysine (K); It was used as a Fab in the crystal; also called HL161BK Fab) VH: QLLLQESGPGLVKPSETLSLTCTVSGGSLSSSFSYWVWIRQPPGKGLEWIGTIYYSGNTYYNPSLKSRLTISVDTSKNHFSLKLSSVTAADTAVYYCARRAGILTGYLDSWGQGTLVTVSS VL: SYVLTQSPSVSVAPGQTARITCGGNNIGSKSVHWYQQKPGQAPVLVVYDDSDRPSGIPERFSASNSGNTATLTISRVEAGDEADYYCQVWDSSSDHVVFGGGTKLTVLGQPKAAPSVTL |

— patent publication US20170210805A1 (published 2017)
